Values quoted from earlier work, collected in article PMC12411175.

Target: insulin receptor (Homo sapiens) (UniProt P06213)
UniProt P06213, sequence (P06213 763-1382): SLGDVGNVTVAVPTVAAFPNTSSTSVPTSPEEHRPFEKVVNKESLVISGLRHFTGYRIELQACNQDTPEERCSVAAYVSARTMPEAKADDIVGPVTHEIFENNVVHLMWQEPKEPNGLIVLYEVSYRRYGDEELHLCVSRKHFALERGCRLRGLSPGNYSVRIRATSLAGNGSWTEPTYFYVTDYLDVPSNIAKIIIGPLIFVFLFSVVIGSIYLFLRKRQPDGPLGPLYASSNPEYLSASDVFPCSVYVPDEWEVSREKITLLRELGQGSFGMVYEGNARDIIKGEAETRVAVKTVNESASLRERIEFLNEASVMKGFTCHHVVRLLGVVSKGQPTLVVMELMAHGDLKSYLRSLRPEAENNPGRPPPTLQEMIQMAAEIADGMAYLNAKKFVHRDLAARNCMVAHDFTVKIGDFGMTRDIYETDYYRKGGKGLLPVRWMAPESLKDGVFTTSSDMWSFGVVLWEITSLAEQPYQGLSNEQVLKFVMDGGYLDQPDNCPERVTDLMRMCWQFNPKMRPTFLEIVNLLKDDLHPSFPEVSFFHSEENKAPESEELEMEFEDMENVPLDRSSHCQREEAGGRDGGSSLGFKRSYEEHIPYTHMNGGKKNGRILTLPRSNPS

insulin, sequence (P01308 90-110): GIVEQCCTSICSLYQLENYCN

insulin (from UniProt P01308)
Kd: 20 pM
